Measured values from patent US20190375786A1, “STABLE PEPTIDES AND METHODS OF USE THEREOF” (Fred Hutchinson Cancer Research Center, priority 2016, published 2019).

Tests used:
[1] = Resistance to reduction by DTT, RP-HPLC; format: physicochemical; conditions: 10 mM DTT; HPLC vs non-reduced peptide
Summary of the method: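 Peptide (12.5 μg from a 2 mg/ml stock, or 0.015 mM final in PBS) was held 30 min at room temperature with or without 10 mM DTT. Reduced and non-reduced forms were compared by C-18 RP-HPLC using a 5–45% acetonitrile/0.1% TFA gradient over 10 min, with detection at 214 and 280 nm.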

[2] = Resistance to reduction by reduced glutathione (GSH), HPLC; format: physicochemical; conditions: 10 mM reduced glutathione (GSH); HPLC vs non-reduced peptide
Summary of the method: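 Peptide stability under reducing conditions was tested in 10 mM DTT and in 10 mM GSH, with analysis by HPLC.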

TEAD protein = assay: Binding of surface-displayed (SDGF) peptide to biotinylated target protein after reducing agent, flow cytometry; format: cell-based; conditions: HEK-293 cells displaying peptide, 20 nM biotinylated target protein
Protocol: Designed or engineered peptides of this disclosure were also tested to evaluate if the peptides' binding activity to their target protein (e.g., TEAD protein) was affected by exposure to reducing conditions. HEK-293T suspension cells were transfected with a surface display GFP FasL(SDGF) vector comprising SEQ ID NO: 39 (SDGF-SEQ ID NO: 39) or SDGF vector comprising SEQ ID NO: 43 (SDGF-SEQ ID NO: 43) construct. Cultures were grown for two days, followed by incubation in 10 mM GSH or 10 mM DTT. Finally, cells were stained with biotinylated-target protein to evaluate the binding activity of a peptide to the target protein. FIG. 15 illustrates the stability of peptides of SEQ ID NO: 39 and SEQ ID NO: 43 after exposure to a reducing agent. Each peptide was expressed on a cell surface and tested for binding to a target protein after cells expressing SDGF-SEQ ID NO: 43 or SEQ ID NO: 39 were exposed to a reducing agent. FIG. 15A illustrates a flow cytometry plot showing binding of HEK-293 suspension cells transfected with SDGF-SEQ ID NO: 39 (GFP) incubated for 5 minutes in PBS, 10 mM DTT, or 10 mM reduced glutathione (GSH) before staining with 20 nM biotinylated target protein and 20 nM AF647-streptavidin. FIG. 15B illustrates a flow cytometry plot showing binding of HEK-293 suspension cells transfected with SDGF-SEQ ID NO: 43 (GFP) incubated for 5 minutes in PBS, 10 mM DTT, or 10 mM reduced glutathione (GSH) before staining with 20 nM biotinylated target protein and 20 nM AF647-streptavidin. FIG. 15C illustrates quantification of the AF647 mean fluorescence intensity (MFI) of cells falling within the “slice” gate shown in FIG. 15A and FIG. 15B. […] In other words, peptides of SEQ ID NO: 39 and SEQ ID NO: 43 were resistant to reduction by GSH.

GSPDEYIERAKECCKKQDIQCCLRIFDESKDPNVMLICLFCW [SEQ ID NO: 43]
resistance to reduction by DTT (in words) [1]: partially resistant
resistance to GSH reducing conditions [2]: resistant
binding to target protein after DTT treatment (TEAD protein; 5 minutes in 10 mM DTT): no loss in binding
binding to target protein after GSH treatment (TEAD protein; 5 minutes in 10 mM GSH): no loss in binding
